US20220411495A1, “POSITIVE ALLOSTERIC MODULATORS OF THE CALCIUM-SENSING RECEPTOR” (VIB VZW, priority 2019, published 2022)

T1: extracellular Venus flytrap domain of CaSR (Homo sapiens, UniProt P41180)
T1 sequence (P41180 20-610 limits assumed): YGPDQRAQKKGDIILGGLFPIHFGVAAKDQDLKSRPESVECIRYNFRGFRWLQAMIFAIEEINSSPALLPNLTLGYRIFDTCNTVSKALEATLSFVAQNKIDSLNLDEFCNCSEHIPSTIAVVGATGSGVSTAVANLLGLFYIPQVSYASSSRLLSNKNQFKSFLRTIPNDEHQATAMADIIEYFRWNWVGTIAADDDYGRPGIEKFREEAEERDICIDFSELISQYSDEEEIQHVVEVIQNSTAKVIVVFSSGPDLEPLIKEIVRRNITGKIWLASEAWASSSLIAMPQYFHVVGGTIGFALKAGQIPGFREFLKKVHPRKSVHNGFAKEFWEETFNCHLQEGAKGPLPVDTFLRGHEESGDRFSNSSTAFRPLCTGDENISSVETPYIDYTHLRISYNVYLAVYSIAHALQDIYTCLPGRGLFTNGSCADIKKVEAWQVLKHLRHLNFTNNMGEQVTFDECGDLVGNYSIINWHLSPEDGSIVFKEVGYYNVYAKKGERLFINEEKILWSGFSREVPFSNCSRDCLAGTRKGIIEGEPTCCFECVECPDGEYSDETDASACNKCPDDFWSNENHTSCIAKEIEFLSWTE

T2: human CaSR wild type (hCaSR WT) (Homo sapiens, UniProt P41180, E1011Q)
T2 construct: mGlu5 signal peptide (N, cleaved yes); expressed in transfected cells
T2 sequence (P41180 20-1078 E1011Q): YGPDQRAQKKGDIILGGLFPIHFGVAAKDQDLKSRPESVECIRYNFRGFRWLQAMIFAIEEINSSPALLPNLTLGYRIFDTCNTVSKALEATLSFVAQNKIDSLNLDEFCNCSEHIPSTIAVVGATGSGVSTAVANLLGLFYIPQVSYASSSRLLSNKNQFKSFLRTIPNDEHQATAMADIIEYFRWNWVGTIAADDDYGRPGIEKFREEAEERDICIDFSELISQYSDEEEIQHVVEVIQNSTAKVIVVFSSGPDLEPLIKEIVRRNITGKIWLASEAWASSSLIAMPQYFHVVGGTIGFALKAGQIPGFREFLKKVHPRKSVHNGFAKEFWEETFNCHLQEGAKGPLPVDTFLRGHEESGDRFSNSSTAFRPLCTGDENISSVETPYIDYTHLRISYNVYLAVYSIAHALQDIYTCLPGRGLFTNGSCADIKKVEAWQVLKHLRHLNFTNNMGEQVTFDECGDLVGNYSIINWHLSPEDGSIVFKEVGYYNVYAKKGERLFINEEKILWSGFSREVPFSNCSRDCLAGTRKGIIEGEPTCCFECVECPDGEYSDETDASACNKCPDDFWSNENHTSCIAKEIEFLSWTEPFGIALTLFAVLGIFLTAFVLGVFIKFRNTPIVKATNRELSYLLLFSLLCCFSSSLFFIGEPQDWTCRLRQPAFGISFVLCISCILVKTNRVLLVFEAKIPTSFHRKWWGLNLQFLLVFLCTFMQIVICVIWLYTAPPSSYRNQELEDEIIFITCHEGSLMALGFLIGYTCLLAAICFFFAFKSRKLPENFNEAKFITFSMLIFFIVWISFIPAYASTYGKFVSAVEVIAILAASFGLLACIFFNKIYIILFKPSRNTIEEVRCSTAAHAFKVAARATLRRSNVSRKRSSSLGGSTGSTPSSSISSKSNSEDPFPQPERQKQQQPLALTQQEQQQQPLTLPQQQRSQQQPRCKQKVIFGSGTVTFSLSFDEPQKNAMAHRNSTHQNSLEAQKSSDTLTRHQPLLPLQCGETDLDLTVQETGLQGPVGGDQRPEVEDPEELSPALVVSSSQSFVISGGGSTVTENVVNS


Experiments:
[1] = biological target: T1, extracellular Venus flytrap domain of CaSR; assay: Surface plasmon resonance on isolated purified Venus flytrap domain; type: binding
[2] = biological target: T2, human CaSR wild type (hCaSR WT); assay: Advanced phospho-ERK1/2 assay, HEK293 HA-hCaSR WT cells; type: cell-based; conditions: 5 μM nanobody, EC20 Ca2+
Experimental: Nanobodies were successfully purified by immobilized metal ion affinity chromatography (IMAC) and size exclusion chromatography (SEC) prior to pharmacological characterization (FIG. 1). Each nanobody was initially screened for Gq/11 activity in the Cisbio IP1 accumulation assay as this is the primary signaling pathway of CaSR (Chavez-Abiega et al., 2020). Whole HEK293 HA-hCaSR WT cells were pre-incubated for 30 minutes at 37° C. with a fixed nanobody concentration (5 μM) prior to stimulation with the endogenous ligand Ca^2+. The well characterized positive allosteric modulator (PAM) chemical NPS R-568 and negative allosteric modulator (NAM) chemical NPS 2143 were added as reference compounds. […] No nanobodies with agonist or NAM activity were observed when all nanobodies screened in the absence or in the presence of EC80 Ca^2+, respectively (FIGS. 4A and 4B). […] Except for CaSR Nb5, the same nanobodies acted as PAMs when ERK1/2 phosphorylation was measured in the presence of EC20 Ca^2+ (FIG. 2B). Again, none of the nanobodies elicited an agonist or NAM response (FIGS. 5B and 5C).
Phosphorylation of ERK1/2 at T202 and Y204 was measured with the HTRF® Advanced Phospho-ERK1/2 assay (Cisbio Bioassays, Codolet, France). […] Upon excitation at 340 nm, emission at 615 and 665 nm was measured on an EnVision multimode plate reader (PerkinElmer, Waltham, Mass., USA). […]

| Binding to isolated Venus flytrap domain (SPR) [1] | PAM activity in phospho-ERK1/2 assay [2] | Molecule | Dependence of binding affinity on endogenous ligands (SPR) ([1]; Ca2+ and/or L-Trp) |
| --- | --- | --- | --- |
| binds |  | Nb4: llama-derived CaSR-specific nanobody acting as PAM, SEQ ID NO:5 (protein, CaSR Nb4) VHH: QVQLVESGGGLVQAGGSLRLSCAASGRTFSTYRMGWFRQGLGKEREFVAAITANGVRTFYTDSVKGRFTISRDNAKNTLYLQMNSLQPDDTAVYLCAARRKGIFTVQQAQDITDWDYWGQGTQVTVSS | synergistically increases upon the presence of both ligands |
|  | could not be confirmed | Nb5: llama-derived CaSR-specific nanobody, weakest PAM, SEQ ID NO:8 (protein, CaSR Nb5) VHH: QVQLVESGGRLVQDGGSLRLSCAASGLTFSDYSMGWFRQVPGKEREFVAVIRRSNDSTYYADFVKGRFTISRDNAKNTVYLQMNSLQPEDTAVYSCAADRGGVGLTSAQTYAYWGQGTQVTVSS |  |
